Measured values published in patent publication US20160272683A1 (Novo Nordisk, published 2016).
Numbered stars: 1 amine (or outer) side, 2 acyl side, 3 side chain; on linkers, the order of the positions; unused ones are H or OH. * marks the point of attachment. C20 diacid = O=C(O)CCCCCCCCCCCCCCCCCCC(=O)*; γGlu = O=C(O)[C@H](CCC(=O)[*:2])N[*:1]

T1: human calcitonin receptor (human, UniProt P30988 25-474)
T1 sequence (looked up): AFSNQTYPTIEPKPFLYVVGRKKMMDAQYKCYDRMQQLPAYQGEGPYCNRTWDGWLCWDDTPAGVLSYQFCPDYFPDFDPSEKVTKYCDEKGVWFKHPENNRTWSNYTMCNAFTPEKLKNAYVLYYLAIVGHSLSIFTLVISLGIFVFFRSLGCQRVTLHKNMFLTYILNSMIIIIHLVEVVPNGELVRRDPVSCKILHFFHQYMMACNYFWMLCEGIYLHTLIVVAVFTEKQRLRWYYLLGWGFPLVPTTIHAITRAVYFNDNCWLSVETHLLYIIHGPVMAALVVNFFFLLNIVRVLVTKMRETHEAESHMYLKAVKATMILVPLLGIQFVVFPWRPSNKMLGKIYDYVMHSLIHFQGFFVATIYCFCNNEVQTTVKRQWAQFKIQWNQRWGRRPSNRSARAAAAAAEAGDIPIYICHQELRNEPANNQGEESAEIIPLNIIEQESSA

T2: human amylin 3(a) receptor (human calcitonin receptor co-expressed with RAMP-3) (human, UniProt P30988 25-474; O60896 24-148, limits assumed)
T2 sequence (looked up) 1: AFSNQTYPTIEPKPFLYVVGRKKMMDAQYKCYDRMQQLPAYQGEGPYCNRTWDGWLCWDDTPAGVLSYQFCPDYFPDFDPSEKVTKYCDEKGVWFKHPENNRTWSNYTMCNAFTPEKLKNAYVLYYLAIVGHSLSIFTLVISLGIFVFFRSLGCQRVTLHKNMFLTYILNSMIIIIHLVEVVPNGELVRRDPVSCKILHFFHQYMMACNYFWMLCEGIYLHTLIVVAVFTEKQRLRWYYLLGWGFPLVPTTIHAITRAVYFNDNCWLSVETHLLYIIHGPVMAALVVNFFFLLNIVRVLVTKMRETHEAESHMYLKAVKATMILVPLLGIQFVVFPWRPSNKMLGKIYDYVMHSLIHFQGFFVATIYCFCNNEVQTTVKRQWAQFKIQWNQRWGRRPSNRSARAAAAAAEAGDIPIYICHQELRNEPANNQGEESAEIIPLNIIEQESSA
T2 sequence (looked up) 2: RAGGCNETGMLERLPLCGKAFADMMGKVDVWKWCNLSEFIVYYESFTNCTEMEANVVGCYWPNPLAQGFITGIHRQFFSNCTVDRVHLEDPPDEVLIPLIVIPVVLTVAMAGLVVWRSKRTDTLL


How the values were obtained:
[1] = target: T1, human calcitonin receptor; assay: cell-based or functional assay
[2] = target: T2, human amylin 3(a) receptor (human …); assay: cell-based or functional assay

Binder	hCTR funct. EC50 (pM) [1] [pM]	hAmylin-R funct. EC50 (pM) [2] [pM]
{C20 diacid-γGlu}-ASELSTAALGRLSAELHELATLPRTETGSGSF-NH2 (SMILES CC(C)C[C@H](NC(=O)[C@H](C)NC(=O)[C@H](C)NC(=O)[C@@H](NC(=O)[C@H](CO)NC(=O)[C@H](CC(C)C)NC(=O)[C@H](CCC(=O)O)NC(=O)[C@H](CO)NC(=O)[C@H](C)NC(=O)CC[C@H](NC(=O)CCCCCCCCCCCCCCCCCCC(=O)O)C(=O)O)[C@@H](C)O)C(=O)NCC(=O)N[C@@H](CCCNC(=N)N)C(=O)N[C@@H](CC(C)C)C(=O)N[C@@H](CO)C(=O)N[C@@H](C)C(=O)N[C@@H](CCC(=O)O)C(=O)N[C@@H](CC(C)C)C(=O)N[C@@H](Cc1c[nH]cn1)C(=O)N[C@@H](CCC(=O)O)C(=O)N[C@@H](CC(C)C)C(=O)N[C@@H](C)C(=O)N[C@H](C(=O)N[C@@H](CC(C)C)C(=O)N1CCC[C@H]1C(=O)N[C@@H](CCCNC(=N)N)C(=O)N[C@H](C(=O)N[C@@H](CCC(=O)O)C(=O)N[C@H](C(=O)NCC(=O)N[C@@H](CO)C(=O)NCC(=O)N[C@@H](CO)C(=O)N[C@@H](Cc1ccccc1)C(N)=O)[C@@H](C)O)[C@@H](C)O)[C@@H](C)O) [[N-terminal(C20 diacid-gGlu), des1, 30S, 31G, 33F]mimylin]	40	50
{C20 diacid-γGlu}-ASELSTAALGRLSAELHELATLPRTETGSGSL-NH2 (SMILES CC(C)C[C@H](NC(=O)[C@H](CO)NC(=O)CNC(=O)[C@H](CO)NC(=O)CNC(=O)[C@@H](NC(=O)[C@H](CCC(=O)O)NC(=O)[C@@H](NC(=O)[C@H](CCCNC(=N)N)NC(=O)[C@@H]1CCCN1C(=O)[C@H](CC(C)C)NC(=O)[C@@H](NC(=O)[C@H](C)NC(=O)[C@H](CC(C)C)NC(=O)[C@H](CCC(=O)O)NC(=O)[C@H](Cc1c[nH]cn1)NC(=O)[C@H](CC(C)C)NC(=O)[C@H](CCC(=O)O)NC(=O)[C@H](C)NC(=O)[C@H](CO)NC(=O)[C@H](CC(C)C)NC(=O)[C@H](CCCNC(=N)N)NC(=O)CNC(=O)[C@H](CC(C)C)NC(=O)[C@H](C)NC(=O)[C@H](C)NC(=O)[C@@H](NC(=O)[C@H](CO)NC(=O)[C@H](CC(C)C)NC(=O)[C@H](CCC(=O)O)NC(=O)[C@H](CO)NC(=O)[C@H](C)NC(=O)CC[C@H](NC(=O)CCCCCCCCCCCCCCCCCCC(=O)O)C(=O)O)[C@@H](C)O)[C@@H](C)O)[C@@H](C)O)[C@@H](C)O)C(N)=O) [[N-terminal(C20 diacid-gGlu), des1, 30S, 31G, 33L]mimylin]	31	55
{C20 diacid-γGlu}-ASELSTAALGRLSAELHELATLPRTETGSGSS-NH2 (SMILES CC(C)C[C@H](NC(=O)[C@H](C)NC(=O)[C@H](C)NC(=O)[C@@H](NC(=O)[C@H](CO)NC(=O)[C@H](CC(C)C)NC(=O)[C@H](CCC(=O)O)NC(=O)[C@H](CO)NC(=O)[C@H](C)NC(=O)CC[C@H](NC(=O)CCCCCCCCCCCCCCCCCCC(=O)O)C(=O)O)[C@@H](C)O)C(=O)NCC(=O)N[C@@H](CCCNC(=N)N)C(=O)N[C@@H](CC(C)C)C(=O)N[C@@H](CO)C(=O)N[C@@H](C)C(=O)N[C@@H](CCC(=O)O)C(=O)N[C@@H](CC(C)C)C(=O)N[C@@H](Cc1c[nH]cn1)C(=O)N[C@@H](CCC(=O)O)C(=O)N[C@@H](CC(C)C)C(=O)N[C@@H](C)C(=O)N[C@H](C(=O)N[C@@H](CC(C)C)C(=O)N1CCC[C@H]1C(=O)N[C@@H](CCCNC(=N)N)C(=O)N[C@H](C(=O)N[C@@H](CCC(=O)O)C(=O)N[C@H](C(=O)NCC(=O)N[C@@H](CO)C(=O)NCC(=O)N[C@@H](CO)C(=O)N[C@@H](CO)C(N)=O)[C@@H](C)O)[C@@H](C)O)[C@@H](C)O) [[N-terminal(C20 diacid-gGlu), des1, 30S, 31G, 33S]mimylin]	38	63
